Assay results reported in the supplement of paper PMC9112550, “Optimization of the antimicrobial peptide Bac7 by deep mutational scanning” (BMC Biology, 2022).

Test system: Escherichia coli TOP10
Experiment: shrunken log2 fold change of peptide-encoding DNA abundance (4.5 h post-induction vs induction); higher = less antimicrobial activity (less host growth inhibition)
Conditions: time post-induction: 4.5 h; library: site-saturation at positions 5, 18, 19, 20
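Also: peptides expressed intracellularly from a pBAD plasmid library in pooled LB shake-flask culture, induced with 0.3% L-arabinose, DNA abundance read by NGS, three biological replicates, DESeq2 with apeglm shrinkage.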

Sequence	shrunken log2 fold change
RRIRVRPPRLPRPRPRPKCYPRP	0.0107
RRIRFRPPRLPRPRPRPVYHPRP	-1.19
RRIRDRPPRLPRPRPRPNFNPRP	-0.307
RRIRDRPPRLPRPRPRPVWTPRP	0.0494
RRIRRRPPRLPRPRPRPTWYPRP	0.0312
RRIRWRPPRLPRPRPRPTHYPRP	0.0892
RRIRERPPRLPRPRPRPMVVPRP	-0.261
RRIRHRPPRLPRPRPRPMCNPRP	-0.186
RRIRERPPRLPRPRPRPILRPRP	0.109
RRIRERPPRLPRPRPRPKKYPRP	-0.518
RRIRLRPPRLPRPRPRPWYQPRP	-0.149
RRIRQRPPRLPRPRPRPYFVPRP	-0.472
RRIRPRPPRLPRPRPRPKNAPRP	-0.0349
RRIRNRPPRLPRPRPRPERGPRP	0.296
RRIRHRPPRLPRPRPRPTFRPRP	0.0997
RRIRSRPPRLPRPRPRPQEEPRP	-0.0262
RRIRMRPPRLPRPRPRPFPEPRP	0.562
RRIRRRPPRLPRPRPRPPSNPRP	0.0633
RRIRQRPPRLPRPRPRPDNQPRP	-0.037
RRIRSRPPRLPRPRPRPDSEPRP	0.139
RRIRIRPPRLPRPRPRPTGSPRP	0.087
RRIRTRPPRLPRPRPRPQNYPRP	-0.311
RRIRLRPPRLPRPRPRPGFKPRP	0.0325

Sequence	shrunken log2 fold change
RRIRLRPPRLPRPRPRPHHAPRP	-0.058
RRIRTRPPRLPRPRPRPFSAPRP	0.0716
RRIRHRPPRLPRPRPRPKAMPRP	-0.0705
RRIRERPPRLPRPRPRPVCCPRP	-0.163
RRIRIRPPRLPRPRPRPDTPPRP	0.0459
RRIRVRPPRLPRPRPRPNHCPRP	-0.181
RRIRFRPPRLPRPRPRPKMKPRP	0.0379
RRIRGRPPRLPRPRPRPKHVPRP	0.0824
RRIRIRPPRLPRPRPRPVCPPRP	-0.0123
RRIRFRPPRLPRPRPRPKIAPRP	-0.0112
RRIRERPPRLPRPRPRPAKQPRP	0.00996
RRIRQRPPRLPRPRPRPQAKPRP	0.0346
RRIRLRPPRLPRPRPRPTGQPRP	0.107
RRIRNRPPRLPRPRPRPTPGPRP	0.312
RRIRQRPPRLPRPRPRPKVTPRP	0.0375
RRIRMRPPRLPRPRPRPEYAPRP	0.0325
RRIRIRPPRLPRPRPRPYKEPRP	0.0131
RRIRHRPPRLPRPRPRPYLPPRP	-0.618
RRIRMRPPRLPRPRPRPDVYPRP	-0.119
RRIRQRPPRLPRPRPRPPLYPRP	0.233
RRIRSRPPRLPRPRPRPKIWPRP	0.141
RRIRKRPPRLPRPRPRPTTAPRP	0.271
RRIRYRPPRLPRPRPRPLMTPRP	-0.181

Sequence	shrunken log2 fold change
RRIRVRPPRLPRPRPRPLGPPRP	0.342
RRIRVRPPRLPRPRPRPRDEPRP	2.79
RRIRHRPPRLPRPRPRPSEMPRP	-0.0714
RRIRPRPPRLPRPRPRPWRTPRP	0.141
RRIRYRPPRLPRPRPRPQPGPRP	-0.0846
RRIRMRPPRLPRPRPRPDPSPRP	-0.0334
RRIRMRPPRLPRPRPRPKTHPRP	0.612
RRIRKRPPRLPRPRPRPACTPRP	0.219
RRIRVRPPRLPRPRPRPRWKPRP	0.328
RRIRQRPPRLPRPRPRPFIMPRP	-1.46
RRIRDRPPRLPRPRPRPSAMPRP	0.36
RRIRCRPPRLPRPRPRPNMKPRP	-0.769
RRIRLRPPRLPRPRPRPPREPRP	0.544
RRIRQRPPRLPRPRPRPWAIPRP	0.0485
RRIRPRPPRLPRPRPRPGYFPRP	-0.0323
RRIRGRPPRLPRPRPRPDGEPRP	0.259
RRIRRRPPRLPRPRPRPMWFPRP	-0.0232
RRIRIRPPRLPRPRPRPHGAPRP	-0.0865
RRIRKRPPRLPRPRPRPRKWPRP	0.448
RRIRLRPPRLPRPRPRPVCGPRP	0.227
RRIRKRPPRLPRPRPRPTGTPRP	0.563
RRIRDRPPRLPRPRPRPKTHPRP	0.0785
RRIRYRPPRLPRPRPRPIPDPRP	0.0657

Sequence	shrunken log2 fold change
RRIRMRPPRLPRPRPRPTKGPRP	0.258
RRIRGRPPRLPRPRPRPWCIPRP	-0.153
RRIRQRPPRLPRPRPRPMWGPRP	-0.263
RRIRPRPPRLPRPRPRPRHWPRP	0.423
RRIRQRPPRLPRPRPRPSPPPRP	0.169
RRIRQRPPRLPRPRPRPIHPPRP	-0.0838
RRIRNRPPRLPRPRPRPQVLPRP	-0.0163
RRIRPRPPRLPRPRPRPFAHPRP	-0.124
RRIRARPPRLPRPRPRPANSPRP	0.329
RRIRWRPPRLPRPRPRPWPLPRP	-0.273
RRIRTRPPRLPRPRPRPHFQPRP	-0.294
RRIRWRPPRLPRPRPRPMIVPRP	2.28
RRIRSRPPRLPRPRPRPWLLPRP	-0.337
RRIRQRPPRLPRPRPRPPVYPRP	-0.0643
RRIRARPPRLPRPRPRPMVCPRP	0.396
RRIRMRPPRLPRPRPRPRDAPRP	1.49
RRIRWRPPRLPRPRPRPATGPRP	0.0426
RRIRCRPPRLPRPRPRPSTYPRP	-0.768
RRIRLRPPRLPRPRPRPRGQPRP	0.533
RRIRGRPPRLPRPRPRPERSPRP	1.36
RRIRERPPRLPRPRPRPSSDPRP	-0.164
RRIRMRPPRLPRPRPRPTNCPRP	0.0955
